Assay results taken from publication PMC4070910, “Cathepsin S Signals via PAR2 and Generates a Novel Tethered Ligand Receptor Agonist” (PLoS ONE, 2014).
“Also recorded” adds a separate entry of the source.

How the values were obtained:
[1] = system: PKC (βII Ser660) phosphorylation in PAR2-transfected HeLa cells; assay: Western blot for p-PKC (Ser660) in PAR2-transfected HeLa cells; type: cell-based, human; details: 10 minutes, room temperature; SLIGRL 10 µM, SLIGKVDGTS 10 µM, KVDGTS 100 µM, cathepsin S 1 µM
Procedure: HeLa cells were transfected with PAR2 plasmid DNA as described above. Untransfected HeLa cells were plated as a control. Forty-eight hours after transfection, cells were rinsed with PBS three times. Transfected HeLa cells were incubated with either SLIGRL (10 µM), SLIGKVDGTS (10 µM), KVDGTS (100 µM), or cathepsin S (1 µM) at room temperature for 10 minutes. Untransfected HeLa cells were treated with SLIGRL (10 µM) in a similar manner. A subset of transfected HeLa cells remained untreated and served as a negative control. After incubation, cells were harvested, pelleted and lysed by sequential freeze-thaw cycles. Cell lysates were centrifuged at 4°C for 15 minutes. Supernatants were collected and protein concentrations were determined by Bradford assay. Equal amounts of cell lysates were loaded onto NuPAGE Novex Bis-Tris mini gels, electrophoresed and transferred to nitrocellulose membranes using standard protocols. The blot was first probed with rabbit anti-phospho-PKC (βII Ser660) antibody (Cell Signalling Technology, Danvers, MA), and later reprobed with a mouse anti-actin antibody to identify the control actin band at 42 kDa. Primary antibodies were labeled with HRP-conjugated donkey anti-rabbit antibody and HRP-conjugated donkey anti-mouse antibody, respectively, followed by detection of the position of the antigen on the blot.

cathepsin S = assay: Cathepsin S digestion of the human PAR2 N-terminal peptide (LC/MS/MS); type: biochemical; details: cathepsin S 1 µM, pH 7.0, 37°C, 20 minutes; MS/MS sequencing
Procedure: Recombinant human cathepsin S was produced as follows. The human cathepsin S proprotein coding region was isolated by PCR using the forward and reverse primers […] CCTG and […] and a template of plasmid DNA containing the entire coding sequence of human cathepsin S. The PCR product was cut with Nco I and Xho I, and cloned into the pTYB4 expression vector from New England Biolabs for expression in E.coli. Cells were grown in LB medium induced with 0.3 mM IPTG, harvested by centrifugation, resuspended in lysis buffer A (0.5 M NaCl, 0.05 M Tris, 5 mM EDTA, pH 8.0) and lysed in a French press. The lysate was centrifuged and the protein was found predominantly in inclusion bodies which were dissolved in buffer B (10 mM DTT and 8 M urea), and refolded in the presence of buffer B containing 0.7 M L-arginine, 0.01 M glutathione, 0.001 M glutathione disulfide, and 0.005 M EDTA as described. […] The specific activity of cathepsin S was assayed using Z-VVR-AMC in fluorimetric and Z-FR-pNA in colorimetric assays[22] and determined to be 10,000 mU/mg protein.
A peptide comprising the N-terminus of PAR2, […], was dissolved in 50 mM Tris, pH 7.0, 0.1 M NaCl, 0.1 mM EDTA, and 0.01% Tween-20 to a concentration of 100 mM. […] The reaction samples were analyzed by the Harvard Microchemistry & Proteomics Analysis Facility (Cambridge, MA). […]

B1: cathepsin S: Recombinant human cathepsin S, cysteine protease, expressed in E.coli, refolded and activated (protein, UniProt P25774 115-331, looked up)
Cathepsin S: LPDSVDWREKGCVTEVKYQGSCGACWAFSAVGALEAQLKLKTGKLVSLSAQNLVDCSTEKYGNKGCNGGFMTTAFQYIIDNKGIDSDASYPYKAMDQKCQYDSKYRAATCSKYTELPYGREDVLKEAVANKGPVSVGVDARHPSFFLYRSGVYYEPSCTQNVNHGVLVVGYGDLNGKEYWLVKNSWGHNFGEEGYIRMARNKGNHCGIASFPSYPEI
- PKC Ser660 phosphorylation (in words) [1]: induce PKC Ser660 phosphorylation
- cleavage points (in words) (cathepsin S): resulted in several cleavage points; also recorded: most frequent after glycine followed by leucine
